From article PMC4970993, “Kinetic studies on recombinant UDP-glucose: sterol 3-O-β-glycosyltransferase from Micromonospora rhodorangea and its bioconversion potential” (AMB Express, 2016)

Columns and labels:
[1] = substrate: O=c1ccn([C@@H]2O[C@H](CO[P@@](=O)(O)O[P@@](=O)(O)O[C@H]3O[C@H](CO)[C@@H](O)[C@H](O)[C@H]3O)[C@@H](O)[C@H]2O)c(=O)[nH]1; assay: HPLC-MS/MS of sterol glucoside formation, Michaelis-Menten fit; format: biochemical, Micromonospora echinospora; details: glycosyl donor, 0.6 mM β-sitosterol as acceptor, 50 mM Tris-HCl pH 7.4 (pH 7.5), 5 mM MgCl2, 30 °C, apparent
Text: (§1) HPLC-MS/MS of sterol glucoside formation, Michaelis-Menten fit on MrSGT

[2] = substrate: CC(C)[C@H](C)CC[C@@H](C)[C@H]1CC[C@H]2[C@@H]3CC=C4C[C@@H](O)CC[C@]4(C)[C@H]3CC[C@]12C; assay: as above; format: biochemical, Micromonospora echinospora; details: glycosyl acceptor, 0.8 mM UDP-Glc, 50 mM Tris-HCl pH 7.4 (pH 7.5), 5 mM MgCl2, 30 °C, apparent
Text: as §1

[3] = substrate: C=C(CC[C@@H](C)[C@H]1CC[C@H]2C3=CC[C@H]4[C@H](C)[C@@H](O)CC[C@]4(C)[C@H]3CC[C@]12C)C(C)C; assay: as above; format: biochemical, Micromonospora echinospora; details: glycosyl acceptor, 0.8 mM UDP-Glc, 50 mM Tris-HCl pH 7.4 (pH 7.5), 5 mM MgCl2, 30 °C, apparent
Text: as §1

[4] = substrate: [H][C@@]12CC=C3C[C@@H](O)CC[C@]3(C)[C@@]1([H])CC[C@@]1(C)[C@@]2([H])CC[C@]1([H])[C@H](C)CC[C@@H](CC)C(C)C; assay: as above; format: biochemical, Micromonospora echinospora; details: glycosyl acceptor, 0.8 mM UDP-Glc, 50 mM Tris-HCl pH 7.4 (pH 7.5), 5 mM MgCl2, 30 °C, apparent
Text: as §1

[5] = substrate: C/C=C(\CC[C@@H](C)[C@H]1CC[C@H]2[C@@H]3CC=C4C[C@@H](O)CC[C@]4(C)[C@H]3CC[C@]12C)C(C)C; assay: as above; format: biochemical, Micromonospora echinospora; details: glycosyl acceptor, 0.8 mM UDP-Glc, 50 mM Tris-HCl pH 7.4 (pH 7.5), 5 mM MgCl2, 30 °C, apparent
Text: as §1

purified protein = substrate: CC(C)CCC[C@@H](C)[C@H]1CC[C@H]2[C@@H]3CC=C4C[C@@H](O)CC[C@]4(C)[C@H]3CC[C@]12C; assay: purified protein; details: glycosyl acceptor, 0.8 mM UDP-Glc, 50 mM Tris-HCl pH 7.4 (pH 7.5), 5 mM MgCl2, 30 °C, apparent

B1: MrSGT (Micromonospora echinospora) (protein)
chain: MRILIATAGSRGDVAPYTGLGAALRRAGYDVAVATTDTFARMVRDAGLGFRRLPADTRGHAGVRSNREVVRAAGVHRGTGPGLRRRAVSEGTDLLLLSTTTAPLGWLIGEATGIRSLGVYLQPTAPTADFPPVVTGARSLGRLGNRTAGRLALRMADRIYAEAVAGLRERLCLPPLSAAAMRARQERAGWPVLHGFGTALVPRPADWRPGLEVVGPWWPHHDAGERLPSELEDFLDAGPRPVLVGFGSMAAGDGERLSELAVRALRRAGLRGILQSGNACLAAEGDDVLTVGDVPHALLFPRLAAVVHHGGAGTRRDPAGGRPLGGGPGDRRPEPFWAGRLARIGAAPAPVPFTTLTADGLAGALGRVVGDEAYARAAEKAARHLAAEDGAARV
notes: recombinant His-tagged protein expressed in E. coli BL21(DE3), purified; ORF from fosmid library
- Km [1]: 280 ± 30 µM
- kcat [1]: 0.122 ± 0.0172 s⁻¹
- Km [2]: 280 ± 30 µM
- kcat [2]: 0.128 ± 0.0165 s⁻¹
- kcat/Km [2]: 457 M⁻¹ s⁻¹
- Km [3]: 510 ± 60 µM
- kcat [3]: 0.13 ± 0.017 s⁻¹
- kcat/Km [3]: 257 M⁻¹ s⁻¹
- Km [4]: 90 ± 10 µM
- kcat [4]: 0.122 ± 0.0172 s⁻¹
- kcat/Km [4]: 1350 M⁻¹ s⁻¹
- Km [5]: 130 ± 20 µM
- kcat [5]: 0.122 ± 0.0273 s⁻¹
- kcat/Km [5]: 940 M⁻¹ s⁻¹
- Km (purified protein): 450 ± 50 µM
- kcat (purified protein): 0.132 ± 0.0185 s⁻¹
- kcat/Km (purified protein): 292 M⁻¹ s⁻¹
